B1: H2-Kb / Ed8 (parent complex)
chain 1: AQSVTQPDARVTVSEGASLQLRCKYSYFGTPYLFWYVQYPRQGLQLLLKYYPGDPVVQGVNGFEAEFSKSNSSFHLRKASVHWSDWAVYFCAVSPGSGGKLTLGAGTRLQVNL
chain 2: DSGVVQSPRHIIKEKGGRSVLTCIPISGHSNVVWYQQTLGKELKFLIQHYEKVERDKGFLPSRFSVQQFDDYHSEMNMSALELEDSAMYFCASSPRASNYTFGSGTRLLVI
chain 3: not shown
chain 4: IQKTPQIQVYSRHPPENGKPNILNCYVTQFHPPHIEIQMLKNGKKIPKVEMSDMSFSKDWSFYILAHTEFTPTETDTYACRVKHDSMAEPKTVYWDRDM
chain 5: SIINFEKL
B2: H2-Kb / F4 (parent complex)
chain 1: QQQVRQSPQSLTVWEGETAILNCSYEDSTFNYFPWYQQFPGEGPALLISIRSVSDKKEDGRFTIFFNKREKKLSLHITDSQPGDSATYFCAAMSNYNVLYFGSGTKLTVEP
chain 2: ETAVFQTPNYHVTQVGNEVSFNCKQTLGHDTMYWYKQDSKKLLKIMFSYNNKQLIVNETVPRRFSPQSSDKAHLNLRIKSVEPEDSAVYLCASSARQNSPLYFAAGTRLTVT
chain 3: not shown
chain 4: B1 chain 4
chain 5: SIINFEKL

Variants of: B1
Assay: % of reporter cells activated (NFAT-GFP), raw
Also: test concentration or dose not given here.

Variant	ratio to parent
chain 5 S1C	1.03
chain 5 S1P	1.13
chain 5 S1H	1.3
chain 5 S1W	1.05
chain 5 S1M	1.27
chain 5 S1N	0.821
chain 5 S1Q	1.24
chain 5 S1E	1.28
chain 5 S1D	1.12
chain 5 S1V	1.15
chain 5 S1I	0.983
chain 5 S1G	1.28
chain 5 S1A	1.28
chain 5 S1Y	1.16
chain 5 S1K	1.02
chain 5 S1T	1.37
chain 5 S1R	0.799
chain 5 S1L	0.917
chain 5 I3S	1.3
chain 5 I3W	1.03
chain 5 I3F	0.98
chain 5 I3A	1.14
chain 5 I3T	1.34

Variant	ratio to parent
chain 5 I3M	1.27
chain 5 I3L	1.3
chain 5 I3R	0.541
chain 5 I3H	1.4
chain 5 I3P	1.25
chain 5 I3Q	1.02
chain 5 I3C	1.27
chain 5 I3N	1.32
chain 5 I3D	1.17
chain 5 I3K	1.03
chain 5 I3Y	0.813
chain 5 I2S	1.37
chain 5 I2N	1.26
chain 5 I2F	1.25
chain 5 I2R	1.16
chain 5 I2A	1.41
chain 5 I2K	1.18
chain 5 I2L	1.37
chain 5 I2V	1.41
chain 5 I2Q	1.06
chain 5 I2E	1.34
chain 5 I2M	1.2
chain 5 I2Y	1.06

Variant	ratio to parent
chain 5 I2D	1.39
chain 5 I2P	1.4
chain 5 I2W	1.16
chain 5 I2C	1.33
chain 5 I2H	1.13
chain 5 I2T	1.43
chain 5 K7G	0.616
chain 5 K7S	0.898
chain 5 K7L	0.815
chain 5 K7V	0.73
chain 5 K7A	0.643
chain 5 K7H	1.25
chain 5 K7M	0.578
chain 5 K7Y	0.958
chain 5 K7I	0.698
chain 5 K7R	1.16
chain 5 K7N	0.809
chain 5 K7T	0.648
chain 5 K7D	0.0673
chain 5 K7E	0.0642
chain 5 K7F	0.393
chain 5 K7C	0.326
chain 5 K7W	0.826

Variant	ratio to parent
chain 5 K7P	0.689
chain 5 K7Q	0.662
chain 5 F5M	1.25
chain 5 F5S	1.21
chain 5 F5I	0.895
chain 5 F5W	1.12
chain 5 F5N	1.1
chain 5 F5K	1.02
chain 5 F5Y	1.34
chain 5 F5T	1.32
chain 5 F5G	1.03
chain 5 F5D	1.12
chain 5 F5V	1.09
chain 5 F5C	1.3
chain 5 F5E	0.932
chain 5 F5Q	1.04
chain 5 F5P	1.16
chain 5 F5L	1.41
chain 5 L8T	1.1
chain 5 L8K	1.15
chain 5 L8W	0.95
chain 5 L8P	1.21
chain 5 L8A	1.05

Variant	ratio to parent
chain 5 L8V	0.877
chain 5 L8Q	1.13
chain 5 L8C	1.04
chain 5 L8N	1.06
chain 5 L8I	1.15
chain 5 L8Y	1.16
chain 5 L8H	1.22
chain 5 L8G	1.2
chain 5 L8M	1.13
chain 5 L8D	0.903
chain 5 L8F	1.12
chain 5 L8E	0.853
chain 5 L8S	0.945
chain 5 N4A	0.255
chain 5 N4K	0.721
chain 5 N4E	0.336
chain 5 N4R	0.442
chain 5 N4Q	0.00512
chain 5 N4P	0.00499
chain 5 N4S	0.216
chain 5 N4G	0.0339
chain 5 N4Y	0.00468
chain 5 N4I	0.469

Variant	ratio to parent
chain 5 N4F	0.015
chain 5 N4C	0.0721
chain 5 N4L	0.84
chain 5 N4W	0.00716
chain 5 N4V	0.0175
chain 5 N4H	0.155
chain 5 N4T	0.262
chain 5 N4M	0.00281
chain 5 E6Q	0.777
chain 5 E6I	0.00371
chain 5 E6Y	0.606
chain 5 E6A	0.678
chain 5 E6W	0.012
chain 5 E6N	0.733
chain 5 E6P	0.27
chain 5 E6C	0.0436
chain 5 E6G	1.04
chain 5 E6V	0.0189
chain 5 E6R	0.459
chain 5 E6M	0.453
chain 5 E6L	0.0522

Variants of: B2
Assay: % of reporter cells activated (NFAT-GFP), raw

Variant	ratio to parent
chain 5 I3A	0.467
chain 5 I2M	0.617
chain 5 I2A	1.38
chain 5 I2V	1.94
chain 5 I2N	0.305
chain 5 N4E	0.0228
chain 5 N4W	0.0415
chain 5 S1R	0.0259
chain 5 F5D	0.129
chain 5 F5G	0.264
chain 5 F5C	1.29
chain 5 F5P	0.0353
chain 5 L8H	0.805
chain 5 L8T	0.614

— article PMC11480844 (2024)
